Source: patent US20050136044A1, “Butyrylcholinesterase variants that alter the activity of chemotherapeutic agents” (priority 2003, published 2005)
Values joined by “and” are separate entries in the source; they are usually repeats but may differ in a detail not shown here. Equal values may be shown once. “Also recorded” adds a separate entry of the source. Read-outs that look alike come from different tables or passages of the source.

Legend:
[1] = CPT-11 conversion to SN-38, fluorescent HPLC detection, conditioned media of transiently expressed BChE variants; type: biochemical; details: for Fold improvement in CPT-11 conversion: compared to wild-type butyrylcholinesterase, conditioned media exposed to 20 mM CPT-11 for 72 hours at 37° C., SN-38 by HPLC, conservative values; for CPT-11 conversion to SN-38 (SN-38 formation by HPLC), in words: conditioned media, 20 mM CPT-11, 72 hours, 37° C., versus mock / wild-type
Method: Butyrylcholinesterase variants were assayed for CPT-11 conversion activity using fluorescent High Performance Liquid Chromotography (HPLC) detection of SN-38 formation as described in Dodds and Rivory, Mol. Pharmacol. 56: 1346-1353 (1999), which is incorporated herein by reference. Briefly, conditioned media from transiently expressed BChE variants were exposed to 20 mM CPT-11 for 72 hours at 37° C. and analyzed by HPLC for SN-38 formation (peak at about 4 minutes column retention time).

[2] = cited from earlier work; for Km: Humerickhouse et al. 2000, read-out: Km (CPT-11 conversion)
[3] = BChE-mediated CPT-11 hydrolysis, SN38 quantitated by reverse-phase HPLC with fluorescence detection; Km by Hofstee plot; type: biochemical; details: for increase in CPT-11 hydrolysis over wild-type BChE: SN38 peak AUC, wild type 20 μg, BChE.4-1 0.05 μg; for improvement in the Km for CPT-11: versus wild-type / native serum BChE
Method: BChE plasmid variants were expressed transiently in the human embryonic kidney cell line 293T and assayed for activity at 72 hours post-transfection. Primary screening of variants was performed by indirect measurement of enzymatic activation of CPT-11 (FIG. 2) in SW48 colon carcinoma cell cytotoxicity assays. […] Functional hits identified in these assays were characterized by sequence analysis of the corresponding DNA from the original preps. […] Enzyme was incubated at 37° C. for 24 hours with CPT-11 over a range of concentrations from 1-80 μM. […] Velocity (v) is in light absorbance units at 540 nm. Substrate concentration [s] is μM CPT-11.
Samples were acidified and resolved by reverse-phase HPLC on a NovaPak C18 column to separate SN38 from unactivated CPT-11. SN38 peak area under the curve (AUC) was used to compare CPT-11 activation by the wild-type enzyme to the optimized BChE.4-1 variant.

Molecule | Fold improvement in CPT-11 conversion [1] | CPT-11 conversion to SN-38 (SN-38 formation by HPLC), in words [1] | also measured
F227A/L286H | >35 fold | increased CPT-11 conversion to SN-38 | 
hCE-1 |  |  | Km [2]: 43 µM
F227A/L286S | >50 fold | significant conversion; also recorded: increased CPT-11 conversion to SN-38 | Fold improvement in CPT-11 conversion ([1]; listed as F227A/L268S): ≥ 50 fold
F227A (protein, synthetic butyrylcholinesterase variant; VARIANT 227: Xaa = Ala) EDDIIIATKNGKVRGMNLTVFGGTVTAFLGIPYAQPPLGRLRFKKPQSLTKWSDIWNATKYANSCCQNIDQSFPGFHGSEMWNPNTDLSEDCLYLNVWIPAPKPKNATVLIWIYGGGFQTGTSSLHVYDGKFLARVERVIVVSMNYRVGALGFLALPGNPEAPGNMGLFDQQLALQWVQKNIAAFGGNPKSVTLFGESAGAASVSLHLLSPGSHSLFTRAILQSGSXNAPWAVTSLYEARNRTLNLAKLTGCSRENETEIIKCLRNKDPQEILLNEAFVVPYGTPLSVNFGPTVDGDFLTDMPDILLELGQFKKTQILVGVNKDEGTAFLVYGAPGFSKDNNSIITRKEFQEGLKIFFPGVSEFGKESILFHYTDWVDDQRPENYREALGDVVGDYNFICPALEFTKKFSEWGNNAFFYYFEHRSSKLPWPEWMGVMHGYEIEFVFGLPLERRDNYTKAEEILSRSIVKRWANFAKYGNPNETQNNSTSWPVFKSTEQKYLTLNTESTRIMTKLRAQQCRFWTSFFPKVLEMTGNIDEAEWEWKAGFHRWNNYMMDWKNQFNDYTSKKESCVGL |  | produced a small amount of SN-38; also recorded: increased CPT-11 conversion to SN-38 | 
F227A/L286W (protein, synthetic butyrylcholinesterase variant) EDDIIIATKNGKVRGMNLTVFGGTVTAFLGIPYAQPPLGRLRFKKPQSLTKWSDIWNATKYANSCCQNIDQSFPGFHGSEMWNPNTDLSEDCLYLNVWIPAPKPKNATVLIWIYGGGFQTGTSSLHVYDGKFLARVERVIVVSMNYRVGALGFLALPGNPEAPGNMGLFDQQLALQWVQKNIAAFGGNPKSVTLFGESAGAASVSLHLLSPGSHSLFTRAILQSGSANAPWAVTSLYEARNRTLNLAKLTGCSRENETEIIKCLRNKDPQEILLNEAFVVPYGTPWSVNFGPTVDGDFLTDMPDILLELGQFKKTQILVGVNKDEGTAFLVYGAPGFSKDNNSIITRKEFQEGLKIFFPGVSEFGKESILFHYTDWVDDQRPENYREALGDVVGDYNFICPALEFTKKFSEWGNNAFFYYFEHRSSKLPWPEWMGVMHGYEIEFVFGLPLERRDNYTKAEEILSRSIVKRWANFAKYGNPNETQNNSTSWPVFKSTEQKYLTLNTESTRIMTKLRAQQCRFWTSFFPKVLEMTGNIDEAEWEWKAGFHRWNNYMMDWKNQFNDYTSKKESCVGL | >42 fold | increased CPT-11 conversion to SN-38 | 
F227A/S287P (protein, synthetic butyrylcholinesterase variant; VARIANT 227: Xaa = Ala; VARIANT 287: Xaa = Pr0) EDDIIIATKNGKVRGMNLTVFGGTVTAFLGIPYAQPPLGRLRFKKPQSLTKWSDIWNATKYANSCCQNIDQSFPGFHGSEMWNPNTDLSEDCLYLNVWIPAPKPKNATVLIWIYGGGFQTGTSSLHVYDGKFLARVERVIVVSMNYRVGALGFLALPGNPEAPGNMGLFDQQLALQWVQKNIAAFGGNPKSVTLFGESAGAASVSLHLLSPGSHSLFTRAILQSGSANAPWAVTSLYEARNRTLNLAKLTGCSRENETEIIKCLRNKDPQEILLNEAFVVPYGTPLXVNFGPTVDGDFLTDMPDILLELGQFKKTQILVGVNKDEGTAFLVYGAPGFSKDNNSIITRKEFQEGLKIFFPGVSEFGKESILFHYTDWVDDQRPENYREALGDVVGDYNFICPALEFTKKFSEWGNNAFFYYFEHRSSKLPWPEWMGVMHGYEIEFVFGLPLERRDNYTKAEEILSRSIVKRWANFAKYGNPNETQNNSTSWPVFKSTEQKYLTLNTESTRIMTKLRAQQCRFWTSFFPKVLEMTGNIDEAEWEWKAGFHRWNNYMMDWKNQFNDYTSKKESCVGL | >6 fold | increased CPT-11 conversion to SN-38 | 
F227A/T284A (protein, synthetic butyrylcholinesterase variant; VARIANT 227: Xaa = Ala; VARIANT 284: Xaa = Ala) EDDIIIATKNGKVRGMNLTVFGGTVTAFLGIPYAQPPLGRLRFKKPQSLTKWSDIWNATKYANSCCQNIDQSFPGFHGSEMWNPNTDLSEDCLYLNVWIPAPKPKNATVLIWIYGGGFQTGTSSLHVYDGKFLARVERVIVVSMNYRVGALGFLALPGNPEAPGNMGLFDQQLALQWVQKNIAAFGGNPKSVTLFGESAGAASVSLHLLSPGSHSLFTRAILQSGSXNAPWAVTSLYEARNRTLNLAKLTGCSRENETEIIKCLRNKDPQEILLNEAFVVPYGXPLSVNFGPTVDGDFLTDMPDILLELGQFKKTQILVGVNKDEGTAFLVYGAPGFSKDNNSIITRKEFQEGLKIFFPGVSEFGKESILFHYTDWVDDQRPENYREALGDVVGDYNFICPALEFTKKFSEWGNNAFFYYFEHRSSKLPWPEWMGVMHGYEIEFVFGLPLERRDNYTKAEEILSRSIVKRWANFAKYGNPNETQNNSTSWPVFKSTEQKYLTLNTESTRIMTKLRAQQCRFWTSFFPKVLEMTGNIDEAEWEWKAGFHRWNNYMMDWKNQFNDYTSKKESCVGL | >7 fold | increased CPT-11 conversion to SN-38 | 
4-1 variant (protein, synthetic butyrylcholinesterase variant; VARIANT 227: Xaa = Ala) EDDIIIATKNGKVRGMNLTVFGGTVTAFLGIPYAQPPLGRLRFKKPQSLTKWSDIWNATKYANSCCQNIDQSFPGFFGSEMWNPNTDLSEDCLYLNVWIPAPKPKNATVLIWIYGGGFQTGTSSLHVYDGKFLARVERVIVVSMNYRVGALGFLALPGNPEAPGNMGLFDQQLALQWVQKNIAAFGGNPKSVTLFGESAGAASVSLHLLSPGSHSLFTRAILQSGSXNAPWAVTSLYEARNRTLNLAKLTGCSRENETEIIKCLRNKDPQEILLNEAFVVPYGTNLSVNFGPTVDGDFLTDMPDILLELGQFKKTQILVGVNKDEGTAFLAYGAPGFSKDNNSIITRKEFQEGLKIFFPGVSEFGKESILFHYTDWVDDQRPENYREALGDVVGDYNFICPALEFTKKFSEWGNNAFFYYFEHRSSKLPWPEWMGVMHGYEIEFVFGLPLERRDNYTKAEEILSRSIVKRWANFAKYGNPNETQNNSTSWPVFKSTEQKYLTLNTESTRIMTKLRAQQCRFWTSFFPKVLEMTGNIDEAEWEWKAGFHRWNNYMMDWKNQFNDYTSKKESCVGL |  |  | Km ([3]; 37° C., 24 hours, CPT-11 1-80 μM, Hofstee plot): ~7 µM and 6.9 µM; increase in CPT-11 hydrolysis over wild-type BChE ([3]; 37° C., 24 hours): > 3000 fold; increase in CPT-11 hydrolysis over wild-type BChE ([3]; 37° C., 24 hours, listed as H77F, F227A, P285N, V331A): at least a three thousand-fold; increase in CPT-11 hydrolysis over wild-type BChE ([3]; 37° C., 24 hours, listed as SEQ ID NO: 180): at least a three thousand-fold; improvement in the Km for CPT-11 [3]: 5-6 fold; improvement in the Km for CPT-11 ([3]; listed as BChE variant 4-1): 5-6 fold and > 5 fold
hCE-2 (protein, UniProt O00748 27-559, looked up) Cocaine esterase: QDSASPIRTTHTGQVLGSLVHVKGANAGVQTFLGIPFAKPPLGPLRFAPPEPPESWSGVRDGTTHPAMCLQDLTAVESEFLSQFNMTFPSDSMSEDCLYLSIYTPAHSHEGSNLPVMVWIHGGALVFGMASLYDGSMLAALENVVVVIIQYRLGVLGFFSTGDKHATGNWGYLDQVAALRWVQQNIAHFGGNPDRVTIFGESAGGTSVSSLVVSPISQGLFHGAIMESGVALLPGLIASSADVISTVVANLSACDQVDSEALVGCLRGKSKEEILAINKPFKMIPGVVDGVFLPRHPQELLASADFQPVPSIVGVNNNEFGWLIPKVMRIYDTQKEMDREASQAALQKMLTLLMLPPTFGDLLREEYIGDNGDPQTLQAQFQEMMADSMFVIPALQVAHFQCSRAPVYFYEFQHQPSWLKNIRPPHMKADHGDELPFVFRSFFGGNYIKFTEEEEQLSRKMMKYWANFARNGNPNGEGLPHWPLFDQEEQYLQLNLQPAVGRALKAHRLQFWKKALPQKIQELEEPEERHTEL |  |  | catalytic efficiency relative to hCE-1 ([2]; CPT-11 conversion): 60 fold; Km [2]: 3.4 µM; rate of conversion of CPT-11 to SN38 relative to hCE-1 ([2]; at pharmacologically relevant concentrations of the drug (~1-10 μM)): 25-30 fold
